Measured values taken from patent US20230137139A1, “BIOSYNTHESIS OF CANNABINOIDS AND C[…]” (priority 2020, published 2023).

Key:
[1] = test system: CBCA, THCA, and CBDA production; assay: In vivo TS activity assay, Example 2 protein engineering of A. niger CBCAS, cultures fed olivetolic acid; assay type: cell-based, S. cerevisiae; details: for Mean CBCA / Mean CBDA / Mean THCA: secondary screen, olivetolic acid (Table 8); for % CBCA / % CBDA / % THCA: share of terminal cannabinoid product profile
Procedure, shortened: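 S. cerevisiae expressing A. niger CBCAS mutants (MFalpha2/HDEL-tagged) grown 2 days at 30 °C in YEP+4% dextrose, then 4 days at 20 °C in YEP+4% galactose with 1 mM olivetolic acid, spiked every 24 h with 2% galactose and 1 mM olivetolic acid. 100 mM citrate pH 5.5 added, methanol-extracted; CBCA, THCA, CBDA quantified by LC-MS.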

[2] = test system: CBCVA, THCVA, and CBDVA production; assay: In vivo TS activity assay, Example 2 protein engineering of A. niger CBCAS, cultures fed divaric acid; assay type: cell-based, S. cerevisiae; details: fed divaric acid; for Mean CBCVA / Mean CBDVA / Mean THCVA: S. cerevisiae strains expressing A. niger CBCAS mutants, secondary screen; for % CBCVA / % CBDVA / % THCVA: share of terminal cannabinoid product profile
Procedure, shortened: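 S. cerevisiae expressing A. niger CBCAS point mutants (N-terminal MFalpha2, C-terminal HDEL signal peptides) grown 2 days at 30 °C in YEP+4% dextrose, then 4 days at 20 °C in YEP+4% galactose with 1 mM divaric acid plus daily 2% galactose and 1 mM divaric acid spikes, then 2 days with 100 mM sodium citrate pH 5.5. Methanol extracts analysed by LC-MS; quadruplicate.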

B1: t865814 (protein)
chain: MGNTTSIAGRDCLISALGGNSALAVFPNELLWTADVHEYNLNLPVTPAAITYPETAAQIAGVVKCASDYDYKVQARSGGHSFGNYGLGGADGAVVVDMKHFTQFSMDDETYEAVIGPGTTLNDVDIELYNNGKRAMAHGVCPTIKTGGHFTIGGLGPTARQWGLALDHVEEVEVVLANSSIVRASNTQNQDVFFAVKGAAANFGIVTEFKVRTEPAPGLAVQYSYTFNLGSTAEKAQFVKDWQSFISAKNLTRQFYNNMVIFDGDIILEGLFFGSKEQYNALGLEDHFAPKNPGNILVLTDWLGMVGHALEDTILKLVGNTPTWFYAKSLGFRQDTLIPSAGIDEFFEYIANHTAGTPAWFVTLSLEGGAINDVAEDATAYAHRDVLFWVQLFMVNPVGPISDTTYEFTDGLYDVLARAVPESVGHAYLGCPDPRMEDAQQKYWRTNLPRLQELKEELDPKNTFHHPQGVMPA
modifications: expressed in S. cerevisiae strain
For B1, the “Mean CBCA” value [1] was 20192.93 µg/L, the “Mean CBDA” value [1] was 6751.44 µg/L and the “Mean THCA” value [1] was 1367.48 µg/L. For the same molecule, the “% CBCA” value [1] was 71.32%, the “% CBDA” value [1] was 23.85% and the “% THCA” value [1] was 4.83%. The “Mean CBCVA” value [2] was 3290.24 µg/L, the “Mean CBDVA” value [2] was 0.00 µg/L and the “Mean THCVA” value [2] was 1468.01 µg/L. The “% CBCVA” value [2] was 69.15%, the “% CBDVA” value [2] was 0.00% and the “% THCVA” value [2] was 30.85%.

B2: t865796 (protein)
chain: MGNTTSIAGRDCLISALGGNSALAVFPNELLWTADVHEYNLNLPVTPAAITYPETAAQIAGVVKCASDYDYKVQARSGGHSFGNYGLGGADGAVVVDMKHFTQFSMDDETYEAVIGPGTTLNDVDIELYNNGKRAMAHGVCPTIKTGGHFTIGGLGPTARQWGLALDHVEEVEVVLANSSIVRASNTQNQDVFFAVKGAAANFGIVTEFKVRTEPAPGLAVQYSYTFNLGSTAEKAQFVKDWQSFISAKNLTRQFYNNMVIFDGDIILEGLFFGSKEQYDALGLEDHFAPKNPGNILVLTDWLGMVGHALEDTILKLVGNTPTWFYAKSLGFRQDTLIPSAGIDEFFEYIANHTAGTPAWFVTLSLEGGAINDVAEDATAYAHRDVLFWVQLFMVNPVGPISDTTYEFTDGLYDVLARAVPESVGHAYLGCPDPRMEDAQQKYWRTNLPRLQELKEEWDPKNTFHHPQGVMPA
modifications: expressed in S. cerevisiae strain
With B2 the “Mean CBCA” value [1] was 19975.57 µg/L, the “Mean CBDA” value [1] was 6427.56 µg/L and the “Mean THCA” value [1] was 1436.09 µg/L. For the same molecule, the “% CBCA” value [1] was 71.75%, the “% CBDA” value [1] was 23.09% and the “% THCA” value [1] was 5.16%. The “Mean CBCVA” value [2] was 2570.89 µg/L, the “Mean CBDVA” value [2] was 0.00 µg/L and the “Mean THCVA” value [2] was 1344.71 µg/L. For the same molecule, the “% CBCVA” value [2] was 65.66%, the “% CBDVA” value [2] was 0.00% and the “% THCVA” value [2] was 34.34%.

B3: t865733 (protein)
chain: MGNTTSIAGRDCLISALGGNSALAVFPNELLWTADVHEYNLNLPVTPAAITYPETAAQIAGVVKCASDYDYKVQARSGGHSFGNYGLGGADGAVVVDMKHFTQFSMDDETYEAVIGPGTTLNDVDIELYNNGKRAMAHGVCPTIKTGGHFTIGGLGPTARQWGLALDHVEEVEVVLANSSIVRASNTQNQDVFFAVKGAAANFGIVTEFKVRTEPAPGLAVQYSYTFNLGSTAEKAQFVKDWQSFISAKNLTRQFYNNMVIFDGDIILEGLFFGSKEQYDALGLEDHFAPKNPGNILVLTDWLGMVGHALEDTILKLVGNTPTWFYAKSLGFRQDTLIPSAGIDEFFEYIANHTAGTPAWFVTLSLEGGAINDVAEDATAYAHRDVLFWVQLFMVNPTGPISDTTYEFTDGLYDVLARAVPESVGHAYLGCPDPRMEDAQQKYWRTNLPRLQELKEELDPKNTFHHPQGVMPA
In the case of B3, the “Mean CBCA” value [1] is reported as 18070.99 µg/L, the “Mean CBDA” value [1] is reported as 6320.33 µg/L and the “Mean THCA” value [1] is reported as 1307.71 µg/L. The “% CBCA” value [1] was 70.32%, the “% CBDA” value [1] was 24.59% and the “% THCA” value [1] was 5.09%. The “Mean CBCVA” value [2] was 2023.09 µg/L, the “Mean CBDVA” value [2] was 0.00 µg/L and the “Mean THCVA” value [2] was 1202.96 µg/L. The “% CBCVA” value [2] was 62.71%, the “% CBDVA” value [2] was 0.00% and the “% THCVA” value [2] was 37.29%.

B4: t865727 (protein)
chain: MGNTTSIAGRDCLISALGGNSALAVFPNELLWTADVHEYNLNLPVTPAAITYPETAAQIAGVVKCASDYDYKVQARSGGHSFGNYGLGGADGAVVVDMKHFTQFSMDDETYEAVIGPGTTLNDVDIELYNNGKRAMAHGVCPTIKTGGHFTIGGLGPTARQWGLALDHVEEVEVVLANSSIVRASNTQNQDVFFAVKGAAANFGIVTEFKVRTEPAPGLAVQYSYTFNLGSTAEKAQFVKDWQSFISAKNLTRQFYNNMVIFDGDIILEGLFFGSKEQYDALGLEDHFAPKNPGNILVLTDWLGMVGHALEDTILKLVGNTPTWFYAKSLGFRQDTLIPSAGIDEFFEYIANATAGTPAWFVTLSLEGGAINDVAEDATAYAHRDVLFWVQLFMVNPVGPISDTTYEFTDGLYDVLARAVPESVGHAYLGCPDPRMEDAQQKYWRTNLPRLQELKEELDPKNTFHHPQGVMPA
B4 was tested, and the “Mean CBCA” value [1] was 16276.39 µg/L, the “Mean CBDA” value [1] was 4297.38 µg/L and the “Mean THCA” value [1] was 1177.87 µg/L. The “% CBCA” value [1] was 74.83%, the “% CBDA” value [1] was 19.76% and the “% THCA” value [1] was 5.42%. For the same molecule, the “Mean CBCVA” value [2] was 1829.32 µg/L, the “Mean CBDVA” value [2] was 0.00 µg/L and the “Mean THCVA” value [2] was 981.31 µg/L. For the same molecule, the “% CBCVA” value [2] was 65.09%, the “% CBDVA” value [2] was 0.00% and the “% THCVA” value [2] was 34.91%.

B5: t865731 (protein)
chain: MGNTTSIAGRDCLISALGGNSALAAFPNELLWTADVHEYNLNLPVTPAAITYPETAAQIAGVVKCASDYDYKVQARSGGHSFGNYGLGGADGAVVVDMKHFTQFSMDDETYEAVIGPGTTLNDVDIELYNNGKRAMAHGVCPTIKTGGHFTIGGLGPTARQWGLALDHVEEVEVVLANSSIVRASNTQNQDVFFAVKGAAANFGIVTEFKVRTEPAPGLAVQYSYTFNLGSTAEKAQFVKDWQSFISAKNLTRQFYNNMVIFDGDIILEGLFFGSKEQYDALGLEDHFAPKNPGNILVLTDWLGMVGHALEDTILKLVGNTPTWFYAKSLGFRQDTLIPSAGIDEFFEYIANHTAGTPAWFVTLSLEGGAINDVAEDATAYAHRDVLFWVQLFMVNPVGPISDTTYEFTDGLYDVLARAVPESVGHAYLGCPDPRMEDAQQKYWRTNLPRLQELKEELDPKNTFHHPQGVMPA
B5 was tested, and the “Mean CBCA” value [1] was 16059.53 µg/L, the “Mean CBDA” value [1] was 4006.74 µg/L and the “Mean THCA” value [1] was 971.80 µg/L. The “% CBCA” value [1] was 76.34%, the “% CBDA” value [1] was 19.05% and the “% THCA” value [1] was 4.62%. For the same molecule, the “Mean CBCVA” value [2] was 1605.94 µg/L, the “Mean CBDVA” value [2] was 0.00 µg/L and the “Mean THCVA” value [2] was 885.33 µg/L. The “% CBCVA” value [2] was 64.46%, the “% CBDVA” value [2] was 0.00% and the “% THCVA” value [2] was 35.54%.

B6: t865740 (protein)
chain: MGNTTSIAGRDCLISALGGNSALAVFPNELLWTADVHEYNLNLPVTPAAITYPETAAQIAGVVKCASDYDYKVQARSGGHSFGNYGLGGADGAVVVDMKHFTQFSMDDETYEAVIGPGTTLEDVDIELYNNGKRAMAHGVCPTIKTGGHFTIGGLGPTARQWGLALDHVEEVEVVLANSSIVRASNTQNQDVFFAVKGAAANFGIVTEFKVRTEPAPGLAVQYSYTFNLGSTAEKAQFVKDWQSFISAKNLTRQFYNNMVIFDGDIILEGLFFGSKEQYDALGLEDHFAPKNPGNILVLTDWLGMVGHALEDTILKLVGNTPTWFYAKSLGFRQDTLIPSAGIDEFFEYIANHTAGTPAWFVTLSLEGGAINDVAEDATAYAHRDVLFWVQLFMVNPVGPISDTTYEFTDGLYDVLARAVPESVGHAYLGCPDPRMEDAQQKYWRTNLPRLQELKEELDPKNTFHHPQGVMPA
For B6, the “Mean CBCA” value [1] was 11837.41 µg/L, the “Mean CBDA” value [1] was 3671.56 µg/L and the “Mean THCA” value [1] was 685.53 µg/L. For the same molecule, the “% CBCA” value [1] was 73.10%, the “% CBDA” value [1] was 22.67% and the “% THCA” value [1] was 4.23%. The “Mean CBCVA” value [2] was 1153.83 µg/L, the “Mean CBDVA” value [2] was 0.00 µg/L and the “Mean THCVA” value [2] was 469.98 µg/L. For the same molecule, the “% CBCVA” value [2] was 71.06%, the “% CBDVA” value [2] was 0.00% and the “% THCVA” value [2] was 28.94%.
